Test results from patent publication US20260209317A1 (US Dept. of Health and Human Services, published 2026).
Read-outs that look alike come from different tables or passages of the source.

What was measured:
[1] = target: T1, SARS-CoV-2 Omicron BA.2 spike protein (on pseudotyped lentivirus) (SARS-CoV-2); assay: cell-based or functional assay
[2] = target: T2, SARS-CoV-2 P.1 spike protein (on pseudotyped lentivirus) (SARS-CoV-2); assay: cell-based or functional assay
[3] = target: T3, SARS-CoV-2 Omicron BJ.1 spike protein (on pseudotyped lentivirus) (SARS-CoV-2, UniProt P0DTC2 14-1273); assay: cell-based or functional assay
[4] = target: T4, SARS-CoV-2 Omicron BA.2.75 spike protein (on pseudotyped lentivirus) (SARS-CoV-2, UniProt P0DTC2 14-1273); assay: cell-based or functional assay
[5] = target: T5, SARS-CoV-2 Omicron BQ.1.1 spike protein (on pseudotyped lentivirus) (SARS-CoV-2, UniProt P0DTC2 14-1273); assay: cell-based or functional assay
[6] = target: T6, SARS-CoV-2 Omicron XBB spike protein (on pseudotyped lentivirus) (SARS-CoV-2, UniProt P0DTC2 14-1273); assay: cell-based or functional assay
[7] = target: T7, SARS-CoV-2 D614G spike protein (on pseudotyped lentivirus) (SARS-CoV-2, UniProt P0DTC2 14-1273); assay: cell-based or functional assay
[8] = target: T8, SARS-CoV-2 Omicron BA.4/BA.5 spike protein (on pseudotyped lentivirus) (SARS-CoV-2, UniProt P0DTC2 14-1273); assay: cell-based or functional assay
[9] = target: T9, SARS-CoV-2 B.1.617.2 spike protein (on pseudotyped lentivirus) (SARS-CoV-2); assay: cell-based or functional assay
[10] = target: T10, SARS-CoV-2 Omicron BA.2.75.2 spike protein (on pseudotyped lentivirus) (SARS-CoV-2); assay: cell-based or functional assay
[11] = target: T11, SARS-CoV-2 B.1.1.7 spike protein (on pseudotyped lentivirus) (SARS-CoV-2); assay: cell-based or functional assay
[12] = target: T12, SARS-CoV-2 B.1.351 spike protein (on pseudotyped lentivirus) (SARS-CoV-2); assay: cell-based or functional assay
[13] = target: T13, SARS-CoV-2 Omicron BA.4.6 spike protein (on pseudotyped lentivirus) (SARS-CoV-2); assay: cell-based or functional assay
[14] = target: SARS-CoV-2 omicron-BA.1 RBD protein (SARS-CoV-2, UniProt P0DTC2 319-541)
[15] = target: T1, SARS-CoV-2 Omicron BA.2 spike protein …; assay: cell-based or functional assay; remark: listed apart in the source
[16] = target: T2, SARS-CoV-2 P.1 spike protein (on …); assay: cell-based or functional assay; remark: listed apart in the source
[17] = target: T3, SARS-CoV-2 Omicron BJ.1 spike protein …; assay: cell-based or functional assay; remark: listed apart in the source
[18] = target: T4, SARS-CoV-2 Omicron BA.2.75 spike …; assay: cell-based or functional assay; remark: listed apart in the source
[19] = target: T5, SARS-CoV-2 Omicron BQ.1.1 spike protein …; assay: cell-based or functional assay; remark: listed apart in the source
[20] = target: T6, SARS-CoV-2 Omicron XBB spike protein …; assay: cell-based or functional assay; remark: listed apart in the source
[21] = target: T7, SARS-CoV-2 D614G spike protein (on …); assay: cell-based or functional assay; remark: listed apart in the source
[22] = target: T8, SARS-CoV-2 Omicron BA.4/BA.5 spike …; assay: cell-based or functional assay; remark: listed apart in the source
[23] = target: T9, SARS-CoV-2 B.1.617.2 spike protein (on …); assay: cell-based or functional assay; remark: listed apart in the source
[24] = target: T10, SARS-CoV-2 Omicron BA.2.75.2 spike …; assay: cell-based or functional assay; remark: listed apart in the source
[25] = target: T11, SARS-CoV-2 B.1.1.7 spike protein (on …); assay: cell-based or functional assay; remark: listed apart in the source
[26] = target: T12, SARS-CoV-2 B.1.351 spike protein (on …); assay: cell-based or functional assay; remark: listed apart in the source
[27] = target: T13, SARS-CoV-2 Omicron BA.4.6 spike protein …; assay: cell-based or functional assay; remark: listed apart in the source

B1: B2-269.1 (antibody, V domains shown)
VH: EVQLVESGGGLVQPGGSLRLSCAASGITVSSNYMSWVRQPPGKGLDWVSLIFSGGSTYYADSVKGRFTISRDNSKNTLYLQMNSLRAEDTAVYYCARVGVAVAGTDYDIWGQGTMVTVSS
VL: DIQMTQSPSSLSASVGDRVTITCQASQDINKYLNWYQQKPGKAPKLLIYDASNLETGVPSRFSGSGSGTDFTFTISSLQPEDIATYYCLHYENLPLSFGGGTKVEIK
neutralization IC50 [1]: < 0.1 mg/L | neutralization IC50 [2]: < 0.1 mg/L | neutralization IC50 [3]: < 0.1 mg/L | neutralization IC50 [4]: < 1.1 mg/L | neutralization IC50 [5]: < 0.1 mg/L | neutralization IC50 [6]: < 1.1 mg/L | neutralization IC50 [7]: < 0.1 mg/L | neutralization IC50 [8]: < 0.1 mg/L | neutralization IC50 [9]: < 0.1 mg/L | neutralization IC50 [10]: < 1.1 mg/L | neutralization IC50 [11]: < 0.1 mg/L | neutralization IC50 [12]: < 0.1 mg/L | neutralization IC50 [13]: < 0.1 mg/L | EC50 (read off the curve) [14]: ~0.04 mg/L | neutralization IC50 [15]: 0.01 mg/L | neutralization IC80 [15]: 0.032 mg/L | neutralization IC50 [16]: 0.01 mg/L | neutralization IC80 [16]: 0.025 mg/L | neutralization IC50 [17]: 0.001 mg/L | neutralization IC80 [17]: 0.008 mg/L | neutralization IC50 [18]: 1.14 mg/L | neutralization IC80 [18]: 3.54 mg/L | neutralization IC50 [19]: 0.126 mg/L | neutralization IC80 [19]: 0.576 mg/L | neutralization IC50 [20]: 0.179 mg/L | neutralization IC80 [20]: 3.56 mg/L | neutralization IC50 [21]: 0.017 mg/L | neutralization IC80 [21]: 0.039 mg/L | neutralization IC50 [22]: 0.013 mg/L | neutralization IC80 [22]: 0.036 mg/L | neutralization IC50 [23]: 0.028 mg/L | neutralization IC80 [23]: 0.054 mg/L | neutralization IC50 [24]: 0.709 mg/L | neutralization IC80 [24]: 2.5 mg/L | neutralization IC50 [25]: 0.02 mg/L | neutralization IC80 [25]: 0.034 mg/L | neutralization IC50 [26]: 0.007 mg/L | neutralization IC80 [26]: 0.022 mg/L | neutralization IC50 [27]: 0.011 mg/L | neutralization IC80 [27]: 0.031 mg/L
